{"source": "paper PMC12173945", "about": "“Import mechanism of peroxisomal proteins with an N-terminal signal sequence” (Nature Cell Biology, 2025)", "molecules": {"B1": {"name": "PEX39 (WT): PEX39 from S. cerevisiae (GenBank accession no. NP_012546.4) (protein)", "chain": "MAAGGELSYEELLDHILNNKPIPNIVEVPNVTLDEGLASTPSLRPRPRPWEGQLQHQSHQGSLDKPNISLDIDQESLEGMTSLTRLSECYDIQSKLQINDSDNDNDDNNNDNNKGDGNDDDNNTVTANPTAR", "modifications": "left off: GST, N-terminal, cleaved"}}, "key": {"[1]": {"tested_on": "PEX5–GFP influx into YG hydrogel", "experiment": "Influx of PEX5–GFP into YG hydrogel in the presence of PEX39 (Fig. 6h)", "format": "biochemical, Xenopus laevis", "description": "Fig. 6 PEX39 can extract PEX7 from the YG phase. a, YG hydrogels were prepared in a glass-bottomed dish and pre-equilibrated with PEX7–GFP. PEX39 was then added to the buffer and a point-scanning confocal microscope was used to follow the PEX7–GFP fluorescence over time. b, PEX7–GFP signal in the gel over time at the indicated molar ratios of wild-type PEX39 (relative to PEX7). […] The effect of PEX39 on the influx of PEX7–GFP into the gel was then assessed using a point-scanning confocal microscope. g, PEX7–GFP influx in the presence of the indicated molar ratios of wild-type PEX39 (relative to PEX7) with or without a fourfold excess of PTS2 peptide and either PEX5S or PEX5-21. […]\nA solution of the purified wild-type YG-domain polypeptide (or the variant lacking the KPWE motif) was concentrated to 2 mM in 50 mM HEPES·NaOH pH 7.8 at RT, 2 M urea and 2 mM TCEP. […] Fluorescence was excited through a 405/488/561/647 quad-band dichroic (Chroma), using a 488-nm solid-state laser (Coherent) and a galvano scanner. […]"}, "[2]": {"tested_on": "PEX39–PEX7 complex and PTS2–GFP cargo", "experiment": "Bead-binding assay: recruitment of PTS2–GFP to PEX7- or PEX39-coated beads (Fig. 7b,c)", "parameters": "species or system yeast (S. cerevisiae)", "description": "Cysteine-containing peptides were covalently conjugated to thiol-reactive SulfoLink coupling resin (Thermo Fisher, catalogue number 20401) according to the manufacturer’s instructions. The prepared beads were then mixed with Assay Buffer containing the fluorescently labelled protein as well as additional components indicated in the text, and the resulting bead suspensions were transferred to a 384-well glass-bottomed plate (Cellvis, P384-1.5H-N). GST-fusion proteins were instead mixed with glutathione agarose 4B (Prometheus, 20-543) in Assay Buffer containing the fluorescently labelled protein and additional components indicated in the text; the resulting bead suspensions were then transferred to a glass-bottomed plate as above. The plates were incubated at RT for the durations specified in the text and directly imaged on the spinning-disk confocal platform described earlier for peroxisomal import reactions in Xenopus egg extract. Note that imaging the beads directly in the binding reaction preserves the equilibrium and thereby allows even weak interactions to be detected. Fluorescence was collected through a Nikon ×10 0.45 NA Plan Apo air objective, and images were acquired using the Nikon NIS-Elements software and a 16-bit digitizer without binning. Imaging parameters were configured to maximize the SNR while avoiding saturation. […]"}, "PEX7–GFP in YG hydrogel": {"tested_on": "PEX7–GFP in YG hydrogel", "experiment": "YG hydrogel release assay, PEX7–GFP (Fig. 6a-c,e)", "format": "biochemical, yeast", "description": "YG hydrogels were prepared in a glass-bottomed plate as described earlier and equilibrated for 3 h at RT in Assay Buffer containing 0.5 µM PEX7–GFP or PEX5–GFP with or without PTS2 peptide and receptor at the concentrations specified in the text. Following the initial incubation, the hydrogels were imaged on a Nikon A1R point-scanning confocal system, as described earlier, with a Nikon ×10 0.45 NA Plan Apo air objective, a pinhole dilated to 1.4 Airy units and a pixel size of 2 µm. A solution of purified PEX39 was then spiked into each reaction and the hydrogels imaged every 2 min for an additional 1 h at RT.\nFor the PEX7-release assay from YG hydrogels, the total fluorescence within a 30-µm-wide band in the gel extending for 150 µm from the gel edge into the gel was measured at each time point. This distance was sufficient to fully encompass the permeation front of each fluorescent species. The resulting values were then normalized to the total fluorescence inside the gel at the start of the experiment and plotted as a function of time."}}}
{"molecule": "B1", "values": [{"measurement": "Effect on influx of PEX5–GFP into YG hydrogel", "setting": "[1]", "result": "did not prevent the influx of PEX5–GFP"}, {"measurement": "Recruitment of PTS2–GFP cargo to PEX39–PEX7", "setting": "[2]", "result": "PTS2–GFP cargo was indeed recruited to PEX7-coated beads in the presence of PEX39"}, {"measurement": "Extraction of PEX7–GFP from YG hydrogel", "setting": "PEX7–GFP in YG hydrogel; PEX39 or mutants added to preloaded hydrogel", "result": "rapidly depleted PEX7–GFP from the hydrogel in a dose-dependent manner"}, {"measurement": "Extraction of PEX7–GFP from YG hydrogel, PEX5-21 complex", "setting": "PEX7–GFP in YG hydrogel; with PTS2 peptide and PEX5-21", "result": "unable to efficiently extract PEX7–GFP"}, {"measurement": "Extraction of PEX7–GFP from YG hydrogel, PEX5S", "setting": "PEX7–GFP in YG hydrogel; with PTS2 peptide and PEX5S", "result": "readily extracted"}]}
